We go through 3 molecules from patent US20060292074A1 (SCHERING AKTIENGESELLSCHAFT, published 2006).

In assay [1] the target is T1, native tomoregulin (TR) on TR-expressing cells (PC3-TR, CHO-TR) (human, UniProt Q9UIK5 41-374).
T1 construct: whole, on cells; also called native TR; native receptor
T1 sequence (looked up): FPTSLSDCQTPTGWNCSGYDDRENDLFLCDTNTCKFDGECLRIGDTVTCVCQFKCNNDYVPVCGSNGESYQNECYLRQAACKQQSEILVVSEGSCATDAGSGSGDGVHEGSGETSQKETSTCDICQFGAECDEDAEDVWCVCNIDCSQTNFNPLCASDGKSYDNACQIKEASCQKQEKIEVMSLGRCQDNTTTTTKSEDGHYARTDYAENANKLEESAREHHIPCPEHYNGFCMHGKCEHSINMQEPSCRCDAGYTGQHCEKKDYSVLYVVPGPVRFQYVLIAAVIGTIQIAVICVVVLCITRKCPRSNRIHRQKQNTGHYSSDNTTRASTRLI
Description: FACS on PC3-TR cells, IgG against scFv monomer; not exactly quantified. As to the method: (§1) Cells were detached with Cell Dissociation Buffer (GIBCO Invitrogen, Carlsbad, Calif.) and collected by centrifugation of 3000 rpm at 4° C. for 5 min. 2×10⁵ cells in 100 μl PBS buffer were incubated for 1 h at 4° C. with anti-TR antibodies at a range of concentrations. Excess antibody was washed away with 1 ml PBS followed by centrifugation, and cells were resuspended and incubated for 45 min at 4° C. in PBS 100 μl containing anti-mouse IgG-FITC (10 μg/mL, Vector Labs Inc.) as the second antibody. Excess antibody was washed away with 1 mL PBS and by centrifugation. Cells were resuspended in 200 μL PBS containing 5 μL propidium iodide (1 μg/ml). Fluorescence intensity was measured on a FACS Calibur (Becton Dickinson). Experiments were performed in triplicate.
(§2) Binding of AT-19 IgG to PC3 cells expressing TR was compared to mouse anti-TR IgG 2H8 by FACS. 2H8 is a murine IgG1 monoclonal antibody that reacts with the follistatin domains of the extra-cellular region of human TR protein (Afar et al., Mol. Cancer Ther., 3:921, 2004). It is used throughout as a positive control antibody.

Assay [2] has as its target T1, native tomoregulin (TR) on …. Description: live cell ELISA on PC3-TR cells. Background: In an ELISA, binding on a coated surface is turned into a signal by an enzyme label.
The target is the same in assay [3]. Description: FACS on PC3-TR cells. As to the method:
as §1, §2

The target of assay [4] is T2, native tomoregulin (TR) on TR-expressing cells (PC3-TR, CHO-TR) (human) (UniProt Q9UIK5).
T2 sequence (looked up): T1 sequence (looked up)
Description: live cell ICELISA on PC3-TR cells; based on total scFv concentration.

The target in assay [5] is T3, recombinant TR protein (extracellular domain of TR, amino acids 1-302, C-terminal 6xHis tag) (human) (UniProt Q9UIK5).
T3 sequence (chain, glycosylated): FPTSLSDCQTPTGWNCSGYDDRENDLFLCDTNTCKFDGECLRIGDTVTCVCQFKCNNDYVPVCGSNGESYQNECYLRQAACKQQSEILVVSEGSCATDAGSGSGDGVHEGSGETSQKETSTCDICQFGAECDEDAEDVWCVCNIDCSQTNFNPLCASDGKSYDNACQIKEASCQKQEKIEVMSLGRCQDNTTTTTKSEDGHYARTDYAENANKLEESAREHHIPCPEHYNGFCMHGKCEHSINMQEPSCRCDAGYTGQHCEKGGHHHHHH
Description: ICELISA against direct ELISA on recombinant TR.

The target of assay [6] is T3, recombinant TR protein (extracellular domain of TR, amino acids 1-302, C-terminal 6xHis tag) (human). Description: ICELISA on recombinant TR, scFv pre-incubated with anti-E-tag antibody; based on total scFv.
Assay [7] addresses T4, recombinant TR protein (extracellular domain of TR, amino acids 1-302, C-terminal 6xHis tag) (human, UniProt Q9UIK5 41-302, glycosylated).
T4 construct: range 41-302; Secreted from baculovirus-infected High Five cells, purified by Ni chelate and size exclusion chromatography; also called 6×his-tagged recombinant TR; recombinant protein
T4 sequence: T3 sequence (chain, glycosylated)
Description: direct ELISA on recombinant TR, monomeric scFv.

B1: AT-19 IgG (fully human IgG1 format of AT-19) (antibody, V domains shown)
VH: QVQLVQSGGGLVQPGGSLRLSCAASGFTFSNYAMSWVRQAPGKGLEWVSAISGNGGATYYADSMKGRFTISRDNSKNTLSLQLNSLRVEDTAVYYCAKSLIWGYDRGVDYWGQGTLVTVSA
VL: HVILTQPPSASGTPGQRVTISCSGGASNIGTNSVNWYQQLPGTAPKLLLYTNDHRPSGVPDRFSGKSGTSASLAISGLQAEDEGDYYCAAWDDTMNGHVVFGGGTKLTVLG
notes: also called fully human AT-19 IgG
What is called EC50 is the midpoint of the concentration-response curve. B1: in assay [1], the “avidity effect (fold) against the scFv monomer” value was more than 20 fold. In addition, the EC50 turned out to be 0.44 nM in assay [2] and 0.17 nM in assay [3].

B2: AT-19 scFv immune complex (AT-19 scFv dimerized by pre-incubation with mouse anti-E-tag monoclonal IgG) (protein, part only; not given: E-tag and anti-E-tag IgG, not shown: small tags and cut ends)
scFv, part: QVQLVQSGGGLVQPGGSLRLSCAASGFTFSNYAMSWVRQAPGKGLEWVSAISGNGGATYYADSMKGRFTISRDNSKNTLSLQLNSLRVEDTAVYYCAKSLIWGYDRGVDYWGQGTLVTVSAGGGGSGGGGSGGGGSGAPHVILTQPPSASGTPGQRVTISCSGGASNIGTNSVNWYQQLPGTAPKLLLYTNDHRPSGVPDRFSGKSGTSASLAISGLQAEDEGDYYCAAWDDTMNGHVVFGGGTKLTVLG
Consider B2, for which the 50% effective concentration (EC50) came out at 8.5 nM in assay [4] and 1.3 nM in assay [6]. Moreover, the fold improvement of EC50 against monomeric AT-19 scFv in assay [5] is more than 20 fold.

B3: AT-19 scFv (monomeric, monovalent single-chain anti-TR antibody) (scFv)
scFv: B2 scFv, part
notes: also called monovalent AT-19 scFv; monomeric AT-19 scFv; not shown: E-tag from the pZ603 (pCANTAB5E-based) vector
Turning to B3, the concentration for a half-maximal effect (EC50) in assay [7] came out at 22 nM.
